{"source": "paper PMC4363726", "about": "(Molecules and Cells, 2015)"}
{"biological_target": "T1, AGL15-GST (Arabidopsis thaliana, UniProt Q38847 1-268)", "T1 sequence": "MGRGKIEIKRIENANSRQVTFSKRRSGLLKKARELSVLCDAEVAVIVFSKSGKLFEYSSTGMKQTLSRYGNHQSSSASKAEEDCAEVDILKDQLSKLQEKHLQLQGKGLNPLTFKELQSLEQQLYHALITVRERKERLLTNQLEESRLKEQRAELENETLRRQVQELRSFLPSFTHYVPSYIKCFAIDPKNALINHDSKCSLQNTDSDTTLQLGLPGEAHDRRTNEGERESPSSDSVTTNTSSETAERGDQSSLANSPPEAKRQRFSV", "test": "EMSA"}
{"binder": "miR156c CArG I (dsDNA) DNA 1: AAAAAAATTGCTATTTTTTGAAAATGTTAC DNA 2: GTAACATTTTCAAAAAATAGCAATTTTTTT", "binding result": "no binding"}
{"binder": "miR156c NC (dsDNA) DNA 1: TTCAGACATCTGTCCCATTGCATGTAAGAG DNA 2: CTCTTACATGCAATGGGACAGATGTCTGAA", "binding result": "no binding"}
{"binder": "miR156c CArG II (dsDNA) DNA 1: TGAATTAATTCTTAAAATTGTGAAATAATT DNA 2: AATTATTTCACAATTTTAAGAATTAATTCA", "binding result": "no binding"}
{"binder": "miR156a CArG III (dsDNA) DNA 1: ATAATAATAATCTAATTAAAGGAGATGAGA DNA 2: TCTCATCTCCTTTAATTAGATTATTATTAT", "binding result": "no binding"}
{"binder": "miR156a NC (dsDNA) DNA 1: TAAGAGAGATAAAGAAAGCGACAAGAGCCA DNA 2: TGGCTCTTGTCGCTTTCTTTATCTCTCTTA", "binding result": "no binding"}
{"binder": "miR156a CArG II (dsDNA) DNA 1: ATATATCTTCCATAATTTTGCAAGTCTTTA DNA 2: TAAAGACTTGCAAAATTATGGAAGATATAT", "binding result": "no binding"}
{"binder": "miR156a CArG I (dsDNA) DNA 1: TGGTGAAAAACAATTAATAGAAAATTAATT DNA 2: AATTAATTTTCTATTAATTGTTTTTCACCA", "binding result": "no binding"}
{"biological_target": "T2, AGL15-His (Arabidopsis thaliana, UniProt Q38847 1-268)", "T2 sequence (looked up)": "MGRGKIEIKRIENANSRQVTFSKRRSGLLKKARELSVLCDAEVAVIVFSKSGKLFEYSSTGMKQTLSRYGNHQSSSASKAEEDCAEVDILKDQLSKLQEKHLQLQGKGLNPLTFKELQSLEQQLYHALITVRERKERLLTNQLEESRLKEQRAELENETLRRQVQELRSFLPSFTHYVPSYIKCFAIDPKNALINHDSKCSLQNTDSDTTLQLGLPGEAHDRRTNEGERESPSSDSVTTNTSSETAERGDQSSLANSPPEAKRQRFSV", "test": "pull-down"}
{"binder": "GST-AGL18 (natural protein, Arabidopsis thaliana, UniProt Q9M2K8 1-256, looked up) MGRGRIEIKKIENINSRQVTFSKRRNGLIKKAKELSILCDAEVALIIFSSTGKIYDFSSVCMEQILSRYGYTTASTEHKQQREHQLLICASHGNEAVLRNDDSMKGELERLQLAIERLKGKELEGMSFPDLISLENQLNESLHSVKDQKTQILLNQIERSRIQEKKALEENQILRKQVEMLGRGSGPKVLNERPQDSSPEADPESSSSEEDENDNEEHHSDTSLQLGLSSTGYCTKRKKPKIELVCDNSGSQVASD", "binding result": "binds"}
{"biological_target": "T1, AGL15-GST", "test": "competition"}
{"binder": "miR156a CArG IV (dsDNA) DNA 1: CAAGTTCATTGCCATTTTTAGGTCTCTCTA DNA 2: TAGAGAGACCTAAAAATGGCAATGAACTTG", "binding result": "binds"}
{"binder": "miR156c CArG III (dsDNA) DNA 1: TTGTCGTTGCCGTTTATAGGTTATGAGATT DNA 2: AATCTCATAACCTATAAACGGCAACGACAA", "binding result": "binds"}
{"binder": "miR156a CArG V (dsDNA) DNA 1: CTTTTTTTTGCTTTTTATGGTTATGTTTTT DNA 2: AAAAACATAACCATAAAAAGCAAAAAAAAG", "binding result": "binds"}
